The supplement of paper PMC7877785
± gives the uncertainty stated by the source.

Experiment: self-splicing fitness, log relative to wild type (ln ratio); higher = more splicing; Tetrahymena group I intron in knt gene, E. coli kanamycin selection, DiMSum; sequences stand for … in CUCUCU…GGAGGGAAAAGUUAUCAGGCAUGCACCUGGUAGCUAGUCUUUAAACCAAUAGAUUGCAUCGGUUUAAAAGGCAAGACCGUCAAAUUGCGGGAAAGGGGUCAACAGCCGUUCAGUACCAAGUCUCAGGGGAAACUUUGAGAUGGCCUUGCAAAGGGUAUGGUAAUAAGCUGACGGACAUGGUCCUAACCACGCAGCCAAGUCCUAAGUCAACAGAUCUUCUGUUGAUAUGGAUGCAGUUCACAGACUAAAUGUCGGUCGGGGAAGAUGUAUUCUUCUCAUAAGAUAUAGUCGGACCUCUCCUUAAUGGGAGCUAGCGGAUGAAGUGAUGCAACACUGGAGCCGCUGGGAACUAAUUUGUAUGCGAAAGUAUAUUGAUUAGUUUUGGAGUACUCGUGGUCG
Summary of the method: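 DiMSum derived fitness as the error-weighted combination of fold changes across replicates, kanamycin versus no kanamycin, normalised to wild type. E. coli BL21(DE3) held the library, which randomised all eight P1ex-region intron nucleotides within the knt kanamycin-resistance gene on pET-22b(+). Six replicate transformations grew overnight at 37°C or 30°C on LB agar with or without 25 μg/mL kanamycin, also containing 100 μg/mL carbenicillin, 50 μM IPTG and 0.2% rhamnose, and pooled colonies were amplicon-sequenced on an Illumina HiSeq 2500.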

Sequence	self-splicing fitness (ln) (30 °C)	self-splicing fitness (ln) (37 °C)
CCAUAGCAAUAUUACGCUGG	-3.54 ± 0.19	-2.58 ± 0.2
CCAUAGCAAUAUUACGGAUC	-1.97 ± 0.41	-1.72 ± 0.32
CCAUAGCAAUAUUACGGAUG	-2.42 ± 0.11	-1.43 ± 0.11
CCAUAGCAAUAUUACGGCAC	–	-1.84 ± 0.28
CCAUAGCAAUAUUACGGCAG	-2.02 ± 0.14	-1.34 ± 0.17
CCAUAGCAAUAUUACGGCCU	-3.71 ± 0.37	–
CCAUAGCAAUAUUACGGCUA	-2.48 ± 0.25	-1.89 ± 0.28
CCAUAGCAAUAUUACGGUGC	-3.09 ± 0.17	-2.61 ± 0.25
CCAUAGCAAUAUUACGUAAA	-4.17 ± 0.2	-3.03 ± 0.32
CCAUAGCAAUAUUACGUCCA	-1.27 ± 0.18	-1.85 ± 0.33
CCAUAGCAAUAUUACGUCCG	-0.229 ± 0.077	0.347 ± 0.13
CCAUAGCAAUAUUACGUCUG	-1.4 ± 0.075	-0.687 ± 0.07
CCAUAGCAAUAUUACGUGGA	-2.2 ± 0.14	-2.16 ± 0.18
CCAUAGCAAUAUUACGUGGU	-4 ± 0.23	-1.73 ± 0.13
CCAUAGCAAUAUUACGUUUC	-3.12 ± 0.15	-0.309 ± 0.2
CCAUAGCAAUAUUACGUUUG	-1.68 ± 0.1	-0.897 ± 0.1
CCCAAGCAAUAUUACGAAGA	-3.32 ± 0.2	-2.59 ± 0.2
CCCAAGCAAUAUUACGAAUU	-3.33 ± 0.12	-2.87 ± 0.15
CCCAAGCAAUAUUACGACAA	-3.14 ± 0.17	-3.12 ± 0.22
CCCAAGCAAUAUUACGACCA	-4.66 ± 0.32	-2.27 ± 0.17
CCCAAGCAAUAUUACGAUGU	-3.53 ± 0.18	-2.04 ± 0.15
CCCAAGCAAUAUUACGCAUU	-3.82 ± 0.2	-2.04 ± 0.19
CCCAAGCAAUAUUACGCCGU	-3.66 ± 0.22	-2.21 ± 0.19
CCCAAGCAAUAUUACGCUAA	-3.05 ± 0.29	-1.23 ± 0.21
CCCAAGCAAUAUUACGCUCC	–	-1.68 ± 0.42

Sequence	self-splicing fitness (ln) (30 °C)	self-splicing fitness (ln) (37 °C)
CCCAAGCAAUAUUACGCUUG	-3.39 ± 0.18	-1.92 ± 0.17
CCCAAGCAAUAUUACGGACC	-2.96 ± 0.18	-2.29 ± 0.26
CCCAAGCAAUAUUACGGAGG	-1.95 ± 0.22	–
CCCAAGCAAUAUUACGGCUC	-2.28 ± 0.21	-2.59 ± 0.29
CCCAAGCAAUAUUACGGUCA	-2.13 ± 0.12	-2.22 ± 0.14
CCCAAGCAAUAUUACGGUGA	-1.27 ± 0.07	-1.16 ± 0.077
CCCAAGCAAUAUUACGGUUA	-2.28 ± 0.12	-2.38 ± 0.16
CCCAAGCAAUAUUACGUAAG	-3.05 ± 0.19	-1.87 ± 0.16
CCCAAGCAAUAUUACGUACA	-2.94 ± 0.16	-3.39 ± 0.23
CCCAAGCAAUAUUACGUAGU	-3.65 ± 0.2	-1.93 ± 0.14
CCCAAGCAAUAUUACGUCCA	-1.96 ± 0.14	-2.45 ± 0.23
CCCAAGCAAUAUUACGUGCG	-4.13 ± 0.21	-2.28 ± 0.18
CCCAAGCAAUAUUACGUGUU	-4.07 ± 0.18	-2.46 ± 0.13
CCCAAGCAAUAUUACGUUGG	-3.48 ± 0.14	-2.28 ± 0.13
CCCAAGCAAUAUUACGUUUA	-3.62 ± 0.14	-3.04 ± 0.18
CCCCAGCAAUAUUACGAAUU	-3.01 ± 0.23	-1.59 ± 0.36
CCCCAGCAAUAUUACGAUCU	-3.24 ± 0.13	-3.06 ± 0.22
CCCCAGCAAUAUUACGCAAG	-3.05 ± 0.14	-2.28 ± 0.19
CCCCAGCAAUAUUACGCCCC	-2.98 ± 0.38	–
CCCCAGCAAUAUUACGCCUG	-3.37 ± 0.19	-2.97 ± 0.27
CCCCAGCAAUAUUACGCGCA	-3.61 ± 0.27	-1.36 ± 0.21
CCCCAGCAAUAUUACGCUGU	-4 ± 0.21	-3.09 ± 0.18
CCCCAGCAAUAUUACGCUUU	-4.4 ± 0.25	-3.36 ± 0.21
CCCCAGCAAUAUUACGGCCA	-3.1 ± 0.2	-2.16 ± 0.2
